Source: the supplement of paper PMC9732359
± gives the uncertainty stated by the source.

Experiment: protein stability index of a GFP-peptide fusion (yeast GPS) (PSI 1-4); higher = more stable; sorted into four equal gates, so the index is relative within each strain
Details: san1∆
Method in brief: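 Tiled yeast protein peptides of 17 residues were each joined downstream of GFP, on plasmids that also express Cherry. The pooled library was maintained in yeast, and mid-log cultures in leucine-free medium were sorted into four equal gates on the GFP/Cherry ratio. Plasmids from every gate were amplified by PCR and sequenced on Illumina, with barcodes linking reads to strains. The protein stability index of a peptide is its gate-number-weighted read frequency summed over the gates.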

**Q.** Which protein stability index does the source give for IDVTFTKVNNQLIKVAV [RPL9A] here?
**A.** 1.75 ± 0.087

Same assay, conditions: ubr1∆

**Q.** Which protein stability index does the source give for GYILEGEELAFYLRRLT [RPS8A] here?
**A.** 1.31 ± 0.25

**Q.** Which protein stability index does the source give for GYTQHGGLRPFGVSFIY [PRE9] here?
**A.** 1.65 ± 0.064

**Q.** Which protein stability index does the source give for HASFLCSFITQDKMFVS [FAS1] here?
**A.** 1.35 ± 0.033

**Q.** Which protein stability index does the source give for HATVVPPEEFSNTIDEL [SRB7] here?
**A.** 3.02 ± 0.089

**Q.** For HCYPRQLCQITCQILES [RRP46], which protein stability index is on record?
**A.** 2 ± 0.048

**Q.** With HDEKTLAPSKHQPITSE [SIR4] as the sequence, how does the protein stability index read?
**A.** 2.27 ± 0.22

**Q.** With HDKNIQKLLKQLDSDAN [ISW2] as the sequence, how does the protein stability index read?
**A.** 2.93 ± 0.032

**Q.** With HDSILHSRILPKKALKV [RRP43] as the sequence, how does the protein stability index read?
**A.** 1.75 ± 0.034

**Q.** With HDVGELFWKVKEEEGSF [PRE2] as the sequence, how does the protein stability index read?
**A.** 2.86 ± 0.07

**Q.** Which protein stability index does the source give for HEFKLIVGKKIQEFLVV [GRR1] here?
**A.** 2.4 ± 0.059

**Q.** For HELGINIDSLKFNELVK [BRR2], which protein stability index is on record?
**A.** 2.9 ± 0.06

**Q.** For HELPRYGITHGLTNWAA [RPL5], which protein stability index is on record?
**A.** 2.25 ± 0.035

**Q.** For HFPINVNIVEKDGAKFI [RPL9A], which protein stability index is on record?
**A.** 2.5 ± 0.07

**Q.** With HGAASFLKERLMEASDA [RPB2] as the sequence, how does the protein stability index read?
**A.** 1.03 ± 0.087

**Q.** Which protein stability index does the source give for HGIKDIPIGHVHVIHFQ [AAR2] here?
**A.** 2.75 ± 0.041

**Q.** For HGKRRSQVVETHKVTDI [YMR129W/POM152], which protein stability index is on record?
**A.** 3.2 ± 0.058

**Q.** With HHAIEEAESLLQFHVAT [RPO21] as the sequence, how does the protein stability index read?
**A.** 2.94 ± 0.087

**Q.** For HHYRPDMTTEEGLDLLK [PRE1], which protein stability index is on record?
**A.** 3.53 ± 0.093

**Q.** For HIRKASSKKSKRLDKVG [LRP1], which protein stability index is on record?
**A.** 2.95 ± 0.066

**Q.** With HITSVPISAVLRGCKFL [GRR1] as the sequence, how does the protein stability index read?
**A.** 2.05 ± 0.037

**Q.** For HIVQDCTLTADGAYALS [ASC1], which protein stability index is on record?
**A.** 2.44 ± 0.064

**Q.** Which protein stability index does the source give for HKDIPEEDFYTVVGNAS [DSN1] here?
**A.** 3.19 ± 0.062

**Q.** With HKHREARGLTATGKKSR [RPL15A] as the sequence, how does the protein stability index read?
**A.** 3.15 ± 0.068

**Q.** For HKISFSGTKSEVLTYVN [YJL039C/NUP192], which protein stability index is on record?
**A.** 2.7 ± 0.087

**Q.** With HKKKRSNAAGADDAISM [SRB8] as the sequence, how does the protein stability index read?
**A.** 2.75 ± 0.054

**Q.** With HKNERRVLEIQTSLVRM [SKI6] as the sequence, how does the protein stability index read?
**A.** 2.96 ± 0.053

**Q.** For HKSLIRSISWAPSIGRW [YGL100W/SEH1], which protein stability index is on record?
**A.** 3.1 ± 0.091

**Q.** With HKVQTKLTRELEKKFQD [RPS7A] as the sequence, how does the protein stability index read?
**A.** 2.54 ± 0.048

**Q.** For HLDNSKSVFSSAGLDSA [RPN1], which protein stability index is on record?
**A.** 2.15 ± 0.055

**Q.** For HLEEYGYLIQVLLTFLQ [YCS4], which protein stability index is on record?
**A.** 1.13 ± 0.097

**Q.** For HLILDKLNQKYDIVKFL [GRR1], which protein stability index is on record?
**A.** 1.81 ± 0.03

**Q.** For HLPCTIEAEEAEEIGVE [RPN8], which protein stability index is on record?
**A.** 2.89 ± 0.053

**Q.** Which protein stability index does the source give for HNGSHRTVAGFSNVELP [ARP7] here?
**A.** 2.8 ± 0.048

**Q.** For HNGWVTSLATSAGQPNL [ASC1], which protein stability index is on record?
**A.** 2.12 ± 0.052

**Q.** Which protein stability index does the source give for HNSVKRYQIMLPEQLKS [SNM1] here?
**A.** 1.74 ± 0.041

**Q.** Which protein stability index does the source give for HPFIPLLKEKPNALKPL [RRP6] here?
**A.** 2.71 ± 0.053

**Q.** Which protein stability index does the source give for HPGYDCWLSNIDIQTQD [RRI1] here?
**A.** 3.16 ± 0.075

**Q.** Which protein stability index does the source give for HPNRVLEHLHSTAFQNT [COR1] here?
**A.** 2.92 ± 0.045

**Q.** With HPTIYESLPQYVDFVPM [POP4] as the sequence, how does the protein stability index read?
**A.** 1.78 ± 0.051

**Q.** Which protein stability index does the source give for HPTTIESLREIPYGPDF [SEC65] here?
**A.** 2.99 ± 0.049

**Q.** With HPVSLISFAIYSALNST [RRP42] as the sequence, how does the protein stability index read?
**A.** 1.84 ± 0.045

**Q.** With HPYEYEIDHQEYSPEIL [RRP6] as the sequence, how does the protein stability index read?
**A.** 2.76 ± 0.035

**Q.** For HQQRMSRTAADILLRLC [YCG1], which protein stability index is on record?
**A.** 2.66 ± 0.1

**Q.** For HRCAIRSGALIKFKKCD [SSN2], which protein stability index is on record?
**A.** 2.49 ± 0.11

**Q.** With HRLTLEDPVTVEYLTRY [PRE6] as the sequence, how does the protein stability index read?
**A.** 2.68 ± 0.22

**Q.** Which protein stability index does the source give for HSDMASKMYNTDKKAFL [PRP8] here?
**A.** 2.98 ± 0.059

**Q.** Which protein stability index does the source give for HSPFPFNRTKGKMVRAQ [PRP8] here?
**A.** 1.05 ± 0.094

**Q.** Which protein stability index does the source give for HSRKMNLTRGINLRKVA [RPT6] here?
**A.** 1.2 ± 0.043

**Q.** For HSVQETNKISPKDFSPN [SSN2], which protein stability index is on record?
**A.** 3.11 ± 0.07

**Q.** For HTKFEVAIGLNGKIWVK [RRP40], which protein stability index is on record?
**A.** 2.56 ± 0.055

**Q.** Which protein stability index does the source give for HVKNFGFANSLTFILGQ [YML031W/NDC1] here?
**A.** 2.27 ± 0.059

**Q.** For HVKQCQETCDKLRARLV [SMC2], which protein stability index is on record?
**A.** 2.21 ± 0.06

**Q.** For HVLNKVTLASILTTAVG [RPN1], which protein stability index is on record?
**A.** 1.31 ± 0.19

**Q.** Which protein stability index does the source give for HVLSRLSYISALGMMTR [RET1] here?
**A.** 1.33 ± 0.073

**Q.** Which protein stability index does the source give for HVLYKESKGNAFKHKRA [RPL19A] here?
**A.** 2.46 ± 0.044

**Q.** Which protein stability index does the source give for HWLQLAKGVYRPNGRKD [POP1] here?
**A.** 3.15 ± 0.049

**Q.** With HYGLAVDIYTHFTSPIR [DIS3] as the sequence, how does the protein stability index read?
**A.** 1.84 ± 0.039

**Q.** Which protein stability index does the source give for HYGNEHIRRMVPLAMGI [RPN1] here?
**A.** 1.47 ± 0.065

**Q.** With HYGQTLGKKKNVKEEET [RPS8A] as the sequence, how does the protein stability index read?
**A.** 2.879 ± 0.026

**Q.** For HYLVLLVAKFLYPIFLL [YJR042W/NUP85], which protein stability index is on record?
**A.** 1.13 ± 0.026

**Q.** Which protein stability index does the source give for IAATQDFITGSYLISHK [RPO31] here?
**A.** 3.13 ± 0.038

**Q.** With IACVLTVINEQQREAVR [RPL35A] as the sequence, how does the protein stability index read?
**A.** 2.23 ± 0.066

**Q.** With IAGFDLIGCIDEAKDFI [PUP3] as the sequence, how does the protein stability index read?
**A.** 3.21 ± 0.055

**Q.** Which protein stability index does the source give for IAGINKKKGLDENTSGK [PRP28] here?
**A.** 3.6 ± 0.075

**Q.** With IALILAIQMVDPASFYL [SMC3] as the sequence, how does the protein stability index read?
**A.** 1.98 ± 0.063

**Q.** For IALMGQDNKKIYVHVRR [ESC2], which protein stability index is on record?
**A.** 2.53 ± 0.068

**Q.** With IAPPVAPHDSEATLLTN [SNF5] as the sequence, how does the protein stability index read?
**A.** 2.83 ± 0.049

**Q.** For IAQGIDLVRDIDIDKLI [SRP72], which protein stability index is on record?
**A.** 1.1 ± 0.16

**Q.** Which protein stability index does the source give for IASLERELILAKKQNYK [YCG1] here?
**A.** 2.42 ± 0.041

**Q.** For ICDPVHKHREARGLTAT [RPL15A], which protein stability index is on record?
**A.** 3.26 ± 0.099

**Q.** For ICLMTLIETVFVKNIRM [RPN9], which protein stability index is on record?
**A.** 1.35 ± 0.074

**Q.** With IDDNYIVVVIEIITSLS [SRB8] as the sequence, how does the protein stability index read?
**A.** 2.22 ± 0.086

**Q.** With IDEAHRIKNEQSALSQI [ISW2] as the sequence, how does the protein stability index read?
**A.** 3 ± 0.069

**Q.** For IDHINEESWEKVVEFAI [SCL1], which protein stability index is on record?
**A.** 2.91 ± 0.06

**Q.** Which protein stability index does the source give for IDKITDGLGNVVDFTSL [YMR129W/POM152] here?
**A.** 3.45 ± 0.1

**Q.** With IDMDKLNTVLIADLDTE [RRP43] as the sequence, how does the protein stability index read?
**A.** 3.22 ± 0.057

**Q.** For IDNLKDTLKENATEVQK [ITC1], which protein stability index is on record?
**A.** 2.88 ± 0.05

**Q.** Which protein stability index does the source give for IDVTFTKVNNQLIKVAV [RPL9A] here?
**A.** 2.44 ± 0.036
